Results as given in article PMC3272482.
Values joined by “and” are separate entries in the source; they are usually repeats but may differ in a detail not shown here. Equal values may be shown once. Read-outs that look alike come from different tables or passages of the source.

How the values were obtained:
Assay in all cases: cryo-EM structure
[1] = molecular target: Escherichia coli DegQ, protease deficient S187A mutant (Escherichia coli) (UniProt P39099)
[2] = molecular target: Escherichia coli DegQ, protease deficient S187A mutant (Escherichia coli) (UniProt P39099); remark: listed apart in the source
[3] = molecular target: Escherichia coli DegQ, protease deficient S187A mutant (Escherichia coli) (UniProt P39099); remark: listed apart in the source

stoichiometry N [1]: 24 protomers and 12 protomers | stoichiometry N [2]: 12 protomers | stoichiometry N [3]: 12 protomers
Substance: Escherichia coli DegQ, protease deficient S187A mutant (from UniProt P39099 28-455) (enzyme)
